From patent US8722861B2, “Monoclonal antibodies that bind to the V3 loop of HIV-1 gp120” (priority 2007, dated 2014) come the findings set out here.

Experiment [1] relates to HIV-1 of subtype B (Western type). Nature of the experiment: MTT assay neutralization, 17 types of viral strains overall. The settings on record: summary of Table 2. The experiment is classed as cell-based. How it is done: Neutralizing activity on 17 types of viral strains including clinically isolated strains was studied (Table 2). For this neutralization experiment, the following MMT assay was applied. As a method, 2×10^3 PM1/CCR5 cells were infected with 100 TCID50 virus in the presence of the antibody in each concentration on a 96-well round-bottom micro culture plate, and the cells were then cultured at 37° C. for 7 days. Thereafter, 100 μl of a culture solution was removed from each well, and 10 μl of an MTT (3-[4,5-dimethylthiazol-2-yl]-2,5-diphenyltetrazolium bromide) solution dissolved in a phosphate-buffered saline (PBS) (7.5 mg/ml) was then added thereto. The obtained mixture was incubated at 37° C. for 3 hours. Thereafter, 100 μl of acidified isopropanol containing 4% Triton X-100 (vol/vol) was added to each well, so as to release formazan crystal. The absorbance (570 nm) was measured with a microplate reader, and the cell survival rate was calculated. This experiment was repeated 2 or 3 times. The antibody concentration necessary for inhibiting 50% virus infection (IC50) was calculated, and the antibody concentration corresponding to such IC50 was indicated with color-coding.
It should be noted that strains, which were not neutralized by the anti-V3 antibody, 0.5γ(1C10), were neutralized by the CD4bs antibodies, 0.5δ(3D6) and 49G2. That is to say, a complementary neutralization was observed.
Background: Formazan colour is commonly taken as a measure of viable cells.

The next experiment deals with strain JR-FL. Nature of the experiment: Single-round neutralization of pseudotyped virus, JR-FL. Format: cell-based, HIV-1. The settings on record: 10 μg/ml and 2 μg/ml, FIG. 3. From the text:
(§1) With regard to 20 types of antibodies, their binding activity to the cell surface, the amount of antibody produced, and the like were taken into consideration. As a result, regarding 15 types of antibodies, the number of cells was increased, a culture supernatant was collected and was then filtrated, and a monoclonal antibody was then purified using a protein A column or protein G column (GE Healthcare). The neutralizing activity of the thus purified monoclonal antibody on pseudotyped HIV-1 viruses was examined at an antibody concentrations of 10 μg/ml and 2 μg/ml, using the envelopes of 4 types of HIV-1 strains commonly used in laboratories (FIG. 3). In order to produce such pseudotyped virus, on the day before transfection, 293T cells were dispersed on a 100-mm collagen-coated plate (IWAKI) to a cell concentration of 4×10^6, and they were then cultured at 37° C. overnight. […] Ten seconds after the addition of the luciferase substrate, fluorescence intensity was measured with a TR477 microplate luminometer (Applied Biosystems) (in the case of GHOST-hi5). […] Thereafter, β-galactosidase activity was measured with the TR477 microplate luminometer. […]

Experiment [2] deals with HIV-1JR-FL chronically infected cells (PM1/JR-FL). Nature of the experiment: FACS binding to functional envelope on infected cell surface. The settings on record: for reactivity in the absence of sCD4: absence of sCD4, FIG. 2. Here is the method: It has been known that HIV-1 has a functional envelope causing membrane fusion with target cells on viral particles and on the surfaces of chronically infected cells. In order to study whether or not the produced antibody is able to recognize this functional envelope, the binding activity of the antibody to the cell surface of HIV-1JR-FL chronically infected cells (PM1/JR-FL) was examined with a flow cytometer. […] PM1/JR-FL cells (2×10^5) were placed in a test tube. Thereafter, 50 μl of sCD4 that had been diluted with a FACS buffer (2% BSA, 0.02% Azide in PBS; pH 7.23) and adjusted to a concentration of 1 μg/ml, or 50 μl of only the FACS buffer, was added to the test tube. The mixture was reacted for 15 minute. Thereafter, 50 μl of monoclonal antibody diluted with a FACS buffer to a concentration of 1 to 3 μg/ml was then added to the reaction mixture, and the obtained mixture was reacted at room temperature for 45 minutes. The resultant was washed with a FACS buffer two times, and 50 μl of FITC-bound anti-human IgG antibody (Sigma) diluted with a FACS buffer at a ratio of 1:200 was then added to the resultant. The mixture was incubated at 4° C. in a dark place for 30 minutes. Thereafter, the resultant was washed with a FACS buffer two times, and it was then fixed with 0.5 ml of fixing solution {2% (w/v) paraformaldehyde in PBS}. The fixed sample was analyzed with FACSCalibur (Beckton-Dickinson). The incorporated data was analyzed with Cell Quest (Beckton-Dickinson). […] Differing from the reaction with the gp120 monomer, in the case of a functional envelope consisting of a trimer, the binding inhibition of CD4bs antibodies by sCD4 was not observed. On the other hand, with regard to CD4i antibodies, the 4 types of antibodies all had only weak reactivity in the absence of sCD4, but in the presence of sCD4, such reactivity was increased up to the level equivalent to the reactivity of a V3 antibody.

Another experiment relates to JR-FL strain. Nature of the experiment: MTT assay of combined use on JR-FL strain. Format: cell-based. As to conditions: combined use with CCR5 inhibitor (maraviroc, MVC); HIV-1JRFL; FIG. 12.
Experiment [3] relates to pseudotyped HIV-1 viruses (envelopes of 4 types of HIV-1 strains). Nature of the experiment: Single-round neutralization of pseudotyped viruses, 4 strains overall. Format: cell-based. As to conditions: 4 types of envelope pseudotyped viruses overall; FIG. 3.
Text: as §1, with “overnight. Thereafter, 5 μg of pNL4-3-Luc-E^−R^− or 5 μg of pSG3ΔEnv (Li M. et. al, J. Virol. 79, pp. 10108-10125, 2005), 4.5 μg of an envelope expression vector, and 0.5 μg of a pRSV-REV vector were introduced into the culture using Effectene (QIAGEN), and the obtained mixture was then cultured at 37° C. in 5% CO2. Twenty-four hours after initiation of the culture, a supernatant was recovered and was then pass through a 0.2-μm filter. Thereafter, it was then dispensed and was then conserved at −80° C. The obtained pseudotyped virus was subjected to a p24 Antigen ELISA kit (ZeptoMetrix Co.) to measure the amount of p24 antigen. A single-round neutralization experiment using the pseudotyped virus was carried out as follows. On the day before the experiment, GHOST-hi5 cells or TZM-bl cells were dispersed on a 96-well flat bottom culture plate (Falcon) at a concentration of 2×10^4 cells/200 μl.” for “overnight.”

A further experiment deals with strain 89.6. Nature of the experiment: Single-round neutralization of pseudotyped virus, 89.6. The experiment is classed as cell-based, HIV-1. As to conditions: 10 μg/ml and 2 μg/ml, FIG. 3.
Text: as §1

The target of experiment [4] is T1, gp120 (Human immunodeficiency virus type 1 group M subtype B, UniProt P03378). The settings on record: 0.5δ(3D6) 5 μg/ml for 15 minutes versus control antibody 8D11; FIG. 4.
T1 sequence (P03378 32-509): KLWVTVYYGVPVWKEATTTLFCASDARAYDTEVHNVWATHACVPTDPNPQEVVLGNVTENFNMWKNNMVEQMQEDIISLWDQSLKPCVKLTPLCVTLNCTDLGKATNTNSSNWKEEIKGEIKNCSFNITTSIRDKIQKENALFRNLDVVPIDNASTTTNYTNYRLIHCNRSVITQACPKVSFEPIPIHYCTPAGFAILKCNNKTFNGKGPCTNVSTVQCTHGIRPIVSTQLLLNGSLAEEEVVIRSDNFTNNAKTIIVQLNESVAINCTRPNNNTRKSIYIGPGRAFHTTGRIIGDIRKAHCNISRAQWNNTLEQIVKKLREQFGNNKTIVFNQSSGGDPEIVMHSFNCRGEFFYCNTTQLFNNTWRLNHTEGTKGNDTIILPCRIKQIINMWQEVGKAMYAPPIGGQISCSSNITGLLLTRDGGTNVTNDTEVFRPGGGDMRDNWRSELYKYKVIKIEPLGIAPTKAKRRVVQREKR
Experimental: Thereafter, a supernatant was removed, and 175 μl of a blocking buffer (2% bovine serum albumin; BSA, 0.1% Azide, PBS, pH 7.2) was added to the residue. The obtained mixture was left at rest at room temperature for 30 minutes. Thereafter, the well was washed with an ELISA wash buffer (0.15% Tween20, PBS, pH 7.2) three times, and 50 μl each of monomeric gp120 (gp120-SF2; Austral Biologicals, San Ramon, Calif.) was then added thereto. The obtained mixture was left at rest at room temperature for 2 hours. Thereafter, the resultant was washed with the ELISA wash buffer three times, so as to produce a “gp120-captured plate.” A culture supernatant of B cells was added to this plate, and the mixture was then reacted at room temperature for 2 hours. The resultant was washed with the ELISA wash buffer three times, and 100 μl of anti-human IgG-ALP, which had been diluted by a factor of 1000 with the ELISA buffer, was then added to the resultant. The obtained mixture was left at rest at room temperature for 1 hour. The resultant was washed with the ELISA wash buffer three times. Phosphatase substrate (SIGMA) was dissolved in a substrate buffer (Diethanol amine buffer; pH 9.85), and 100 μl of the obtained solution was then added to each well, followed by leaving the mixture at rest at room temperature for 10 to 30 minutes. Thereafter, the absorbance (405 nm) was measured with a microplate reader. […]
The test system of experiment [5] is Standard Virus Panels B; SVPB (12 types of pseudotyped viruses). Nature of the experiment: Breadth of neutralization on Standard Virus Panels B. Format: cell-based, HIV-1.
Experimental: The neutralizing activity of the thus purified monoclonal antibody on pseudotyped HIV-1 viruses was examined at an antibody concentrations of 10 μg/ml and 2 μg/ml, using the envelopes of 4 types of HIV-1 strains commonly used in laboratories (FIG. 3). In order to produce such pseudotyped virus, on the day before transfection, 293T cells were dispersed on a 100-mm collagen-coated plate (IWAKI) to a cell concentration of 4×10^6, and they were then cultured at 37° C. overnight. Thereafter, 5 μg of pNL4-3-Luc-E^−R^− or 5 μg of pSG3ΔEnv (Li M. et. al, J. Virol. 79, pp. 10108-10125, 2005), 4.5 μg of an envelope expression vector, and 0.5 μg of a pRSV-REV vector were introduced into the culture using Effectene (QIAGEN), and the obtained mixture was then cultured at 37° C. in 5% CO2. […] Ten seconds after the addition of the luciferase substrate, fluorescence intensity was measured with a TR477 microplate luminometer (Applied Biosystems) (in the case of GHOST-hi5). […] Thereafter, β-galactosidase activity was measured with the TR477 microplate luminometer. Neutralizing activity was calculated in accordance with the expression {1−(t−c)/(n−c)}×100 (t: the fluorescence intensity of a sample; c: the background fluorescence intensity of only cells; n: the fluorescence intensity of a sample with no antibodies). […]
Experiment [6] concerns the target T1, gp120. As to conditions: epitope on gp120: V3L, CD4bs, CD4i.
Experimental: Antibodies reacting with gp120 are classified into the following 4 types, depending on the types of reactive epitopes. Specifically, the 4 types are a CD4-binding site (CD4bs), a CD4-induced epitope (CD4i), a third variable loop (V3loop; V3L), and those that cannot be classified into the aforementioned groups (other epitopes). Whether or not an antibody binds to V3L is determined by ELISA using a synthetic peptide having the amino acid sequence of V3L (V3-peptide ELISA). […] On the day before the experiment, 100 μl of a peptide (NNT20) diluted in PBS at a concentration of 5 μg/ml was added to each well of a 96-well polypropyren plate, and it was then left at 4° C. overnight. After washing, 175 μl of a blocking buffer was added to each well, and was incubated at room temperature for 30 minutes. The plate was washed with an ELISA wash buffer three times, and a B cell culture supernatant diluted serially was then added to the wells. The plate was reacted at room temperature for 2 hours. […] After washing the resultant, color was developed using ALP-Substrate, and the absorbance (405 nm) was then measured. […]
On the other hand, soluble CD4 (sCD4; R&D Systems, Inc. Minneapolis, Minn.) exerts completely opposite influences on a CD4bs antibody and a CD4i antibody. […] After washing them, color was developed using ALP-Substrate, and the absorbance (405 nm) was then measured.
In the next experiment the test system is 93TH976.17. Nature of the experiment: Neutralization of subtype AE virus 93TH976.17. Format: cell-based, HIV-1. As to conditions: 93TH976.17, subtype AE; FIG. 11. From the text: (§2) As with the panels of subtype (clade) B viruses (SVPB), the panels of subtype C viruses have also been supplied. […] Thus, it is considered that they are important for the studies of cross-clade neutralization by antibodies.

In experiment [7] the target is monomeric gp120 (gp120-SF2) (Human immunodeficiency virus type 1 group M subtype B, UniProt P03378). As to conditions: presence or absence of 0.5 μg/ml sCD4; FIG. 1.
monomeric gp120 (gp120-SF2), sequence (P03378 32-509): as above
Experimental: The “gp120-capture ELISA” was applied to screen for the antibody-producing cells having an anti-gp120 activity (J. P. Moore et al., J. Virol. 67, pp. 6136-6151, 1993). […] Thereafter, a supernatant was removed, and 175 μl of a blocking buffer (2% bovine serum albumin; BSA, 0.1% Azide, PBS, pH 7.2) was added to the residue. The obtained mixture was left at rest at room temperature for 30 minutes. Thereafter, the well was washed with an ELISA wash buffer (0.15% Tween20, PBS, pH 7.2) three times, and 50 μl each of monomeric gp120 (gp120-SF2; Austral Biologicals, San Ramon, Calif.) was then added thereto. The obtained mixture was left at rest at room temperature for 2 hours. Thereafter, the resultant was washed with the ELISA wash buffer three times, so as to produce a “gp120-captured plate.” A culture supernatant of B cells was added to this plate, and the mixture was then reacted at room temperature for 2 hours. The resultant was washed with the ELISA wash buffer three times, and 100 μl of anti-human IgG-ALP, which had been diluted by a factor of 1000 with the ELISA buffer, was then added to the resultant. […] Thereafter, the absorbance (405 nm) was measured with a microplate reader.
Utilizing this property, monoclonal antibodies were classified. […] After washing them, color was developed using ALP-Substrate, and the absorbance (405 nm) was then measured.
The test system of a further experiment is SVPC13. Nature of the experiment: Neutralization of subtype C virus panel, SVPC13. The experiment is classed as cell-based, HIV-1. The settings on record: compared with a control antibody, FIG. 11.
Text: as §2

A further experiment relates to 93TH966.8. Nature of the experiment: Neutralization of subtype AE virus 93TH966.8. Format: cell-based, HIV-1. As to conditions: 93TH966.8, subtype AE; FIG. 11.
Text: as §2

The next experiment deals with SVPC15. Nature of the experiment: Neutralization of subtype C virus panel, SVPC15. Format: cell-based, HIV-1. As to conditions: compared with a control antibody, FIG. 11.
Text: as §2

Experimental for JR-FL strain: By combining 0.5δ and 0.5γ in various concentrations, their neutralizing activity on a JR-FL strain was analyzed by an MTT assay. […] In order to analyze such synergistic effect, the analysis method of Chow/Talaley et al. and the 3-dimensional analysis method were applied. […]

B1: 5G2: IgG1 κ monoclonal antibody to gp120 V3 loop; VH SEQ ID NO: 3, VL SEQ ID NO: 4; FERM BP-11021 (antibody, listed as Homo sapiens, V domains shown)
VH: EVQLVESGGGVVRPGNSLRLSCAASGIIFSTANLHWLRHVPGKGLEWVAIISYDGHRQYYADLVKGRFTISRDNSKNTLHLQMDGLTSDDTAVYYCAKDGADENNLGPAFDYWGRGTLVTVSS
VL: EIVLTQSPATLSVSPGEGATLSCRASQSISSNLAWYQQKPGQAPRLLIYGASTGATGIPARFSGSGSGTDFTLTISRLEPEDFAIYYCQQYGSLPITFGQGTRLEIKR
notes: IgG1 κ monoclonal antibody to gp120 V3 loop; FERM BP-11021
Take B1: in experiment [1], the “neutralizing activity on various HIV-1 strains, overall” value was “equivalent to that of a KD-247 antibody”. In addition, the neutralizing activity result was “exhibited a neutralizing activity” with strain JR-FL, “strong neutralizing activity” in experiment [3] and “exhibited a neutralizing activity” with strain 89.6. Also, the “reactivity in the absence of sCD4” value in experiment [2] is on record as “strong reactivity”. Also, the “combination effect on neutralizing activity” value with JR-FL strain was “synergistic inhibitory effect”.

B2: 0.5γ(1C10): human IgG1 κ monoclonal antibody to gp120 V3 loop; VH SEQ ID NO: 1, VL SEQ ID NO: 2; FERM BP-11060 (antibody, listed as Homo sapiens, V domains shown)
VH: EVQLVESGGGLIQPGGSLRLSCAASGFTVSSSSMSWVRQAPEKGLEWVSVVYSGGNTYNADSVKGRFSISRDNSKNTVYLQMNSLRADDTAVYYCARDLGGGDRSSDYWGQGTLVTVSS
VL: DIQLTQSPSSLSASVGDRVTITCRASESINTYLNWYQQRPGKAPKLLIYAASTLQTGVPSRFSGSGSGTLFTLTISSLQPEDLATYYCQQSFSTLPYTLGRGTKVEIKG
notes: human IgG1 κ monoclonal antibody to gp120 V3 loop; FERM BP-11060
On to B2, for which, in experiment [1], the “neutralizing activity on various HIV-1 strains, overall” value was “wide range of strong neutralizing activity”. The “reactivity of biotinylated antibody with gp120 in the presence of 0.5δ” value in the experiment with gp120 [4] is reported as “significantly enhanced”. In addition, the results for the neutralizing activity result (in the experiment on strain JR-FL; in experiment [3]; with strain 89.6) were “exhibited a neutralizing activity”, “strong neutralizing activity” and “exhibited a neutralizing activity”, respectively. For the same molecule, the “reactivity in the absence of sCD4” value in experiment [2] is on record as “strong reactivity”. Further, in the experiment with JR-FL strain, the “combination effect on neutralizing activity” value is given as “synergistic inhibitory effect”. Moreover, the “viruses whose growth was suppressed 50% or more” value in experiment [5] (at a concentration of 50 μg/ml) was 7/12; in experiment [5] (at a concentration of 150 μg/ml), 10/12.

B3: 42F9: IgG1 κ monoclonal antibody to gp120 CD4-binding site; VH SEQ ID NO: 7, VL SEQ ID NO: 8; FERM BP-11022 (antibody, listed as Homo sapiens, V domains shown)
VH: EVQLVESGGGVVRPGGSLRLSCAASGFAFGEYGMSWVRQAPGKGLEWVSGINWNGGSTGYADSVQGRFTTSRDNAKNSLYLQMNSLRAEDTALYYCARDENYDILTGNYYYGMDVWGQGTTVTVSS
VL: DIQLTQSPSSLSASVGDRVTITCRASQSISNYLNWYQQKPGKAPKLLIYAASSLQSGVPSRFSGSGSGTDFTLTISSLQPEDFATFYCQQSHSIPYTFGQGTKLEIKR
Take B3: in the experiment with gp120 [6], the Traget result was “CD4bs”. Moreover, the neutralizing activity result with 93TH976.17 is reported as “exhibited a neutralizing activity”; in the experiment on SVPC13 it was “clear neutralizing activity”; in [3], “strong neutralizing activity”; with 93TH966.8, “exhibited a neutralizing activity”; in the experiment on SVPC15 it was “clear neutralizing activity”. For the same molecule, the “influence of sCD4 on reactivity with gp120” value in [7] is recorded as “suppressed in the presence of sCD4”. The “binding activity to the infected cell surface” value in experiment [2] (FIG. 2) is “had a binding activity”.
